Assay results taken from PMC12702239, “The regulatory mechanisms of SARS-CoV-2 N protein helicase and its annealing activity”.

Tests used:
CoV-2 Nsp13 helicase = CoV-2 Nsp13 helicase (SARS-CoV-2, UniProt P0DTD1 5325-5925); experiment: fluorescence anisotropy; 10-42 C; no significant change; settings: protein: recombinant; tags: N-terminal SUMO tag removed with SUMO protease; label: 3'-6-FAM on strand 1; 5' overhang 22 nt, 21 bp
CoV-2 N (nucleocapsid) = CoV-2 N (nucleocapsid) (SARS-CoV-2, UniProt P0DTC9 1-419); experiment: fluorescence anisotropy; 50 mM NaCl, no Mg2+, no ATP; FP: 25 mM Tris-HCl pH 7.6, 50 mM NaCl, no Mg2+, 5 nM labelled nucleic acid, 5 min; temperature not stated; Kd from Hill fits (values not in the text); settings: protein: recombinant; tags: His6; chain copies: 2; label: 3'-6-FAM on strand 1; 5' overhang 22 nt, 21 bp

B1: 5'D/D-OhS22D21 (dsDNA)
DNA 1: CTGTAGGAATGTGAAATAAAAACGATGTTTTATTTACATTGTA
DNA 2: TACAATGTAAATAAAACATCG
B1: binds (CoV-2 Nsp13 helicase); binds (CoV-2 N (nucleocapsid)).
